Eight molecules from article PMC11077055, “Structure-functional characterization of Lactococcus AbiA phage defense system” (Nucleic Acids Research, 2024) can be followed below.

One data set concerns the target T1, AbiA (Lactococcus lactis, UniProt Q48596).
T1 construct: full-length, 628 residues, N-terminal His6-tag kept (no SUMO), made in E. coli BL21 Star; plasmid-encoded in the source; homodimer (148 kDa theoretical); co-purifies with covalently attached ssDNA
T1 sequence (Q48596 1-628): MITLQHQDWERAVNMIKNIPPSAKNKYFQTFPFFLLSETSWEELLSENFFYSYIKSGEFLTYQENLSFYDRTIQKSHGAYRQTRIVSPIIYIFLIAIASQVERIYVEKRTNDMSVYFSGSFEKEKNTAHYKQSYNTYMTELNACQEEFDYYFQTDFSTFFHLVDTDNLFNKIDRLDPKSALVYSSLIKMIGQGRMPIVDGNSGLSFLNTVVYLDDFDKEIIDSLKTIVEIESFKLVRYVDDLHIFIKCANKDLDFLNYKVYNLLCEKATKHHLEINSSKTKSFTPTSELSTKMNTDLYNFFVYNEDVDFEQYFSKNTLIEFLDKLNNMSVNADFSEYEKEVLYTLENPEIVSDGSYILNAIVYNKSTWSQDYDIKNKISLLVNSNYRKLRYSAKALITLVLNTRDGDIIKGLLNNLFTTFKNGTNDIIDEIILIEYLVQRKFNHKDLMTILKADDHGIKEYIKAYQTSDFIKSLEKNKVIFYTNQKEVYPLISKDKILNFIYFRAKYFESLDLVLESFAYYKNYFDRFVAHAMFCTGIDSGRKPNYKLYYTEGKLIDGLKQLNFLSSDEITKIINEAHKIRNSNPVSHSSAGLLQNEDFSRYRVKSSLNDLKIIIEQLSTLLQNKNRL
Briefly: extension of […]-labelled co-purified covalently attached DNA, urea-PAGE autoradiography. The data set is classed as biochemical. To be noted: 200 uM single dNTP, 50 mM Tris pH 7.0, 250 mM NaCl, 10 mM MgCl2, 5 mM DTT, 37 C; DNA pre-labelled with alpha-33P-dATP; template-independent, protein-primed.

Data set [1] deals with the molecule itself. Nature of the data set: SEC-MALS; Superdex 200 Increase 10/300 GL; 25 mM Tris pH 7.0, 400 mM NaCl, 2% glycerol, 1 mM DTT; 0.75 ml/min; self-association of AbiA variants. (SEC sorts molecules by how far they enter the pores of the column.)
Data set [2] deals with the molecule itself. Briefly: SEC-MALS; GF/MALS of tryptophan substitution variants of the dimer interface; data not shown.

As usually defined, the stoichiometry N is the number of molecules, sites or subunits per partner or assembly.

Turning to `Nc1ncnc2c1ncn2[C@H]1C[C@H](O)[C@@H](COP(=O)(O)OP(=O)(O)OP(=O)(O)O)O1` [dATP], on AbiA, the “extension of 33P-labelled co-purified covalently attached DNA, urea-PAGE autorad” value is “dATP and dCTP were incorporated with efficiencies similar to those observed with dNTP mix”.

As to `Nc1ccn([C@H]2C[C@H](O)[C@@H](COP(=O)(O)OP(=O)(O)OP(=O)(O)O)O2)c(=O)n1` [dCTP], the “extension of 33P-labelled co-purified covalently attached DNA, urea-PAGE autorad” value at AbiA is “dATP and dCTP were incorporated with efficiencies similar to those observed with dNTP mix”.

B1: His6-SUMO-AbiA fusion protein (full-length AbiA from L. lactis with uncleaved SUMO tag) (enzyme, UniProt Q48596 1-628, looked up)
chain: MITLQHQDWERAVNMIKNIPPSAKNKYFQTFPFFLLSETSWEELLSENFFYSYIKSGEFLTYQENLSFYDRTIQKSHGAYRQTRIVSPIIYIFLIAIASQVERIYVEKRTNDMSVYFSGSFEKEKNTAHYKQSYNTYMTELNACQEEFDYYFQTDFSTFFHLVDTDNLFNKIDRLDPKSALVYSSLIKMIGQGRMPIVDGNSGLSFLNTVVYLDDFDKEIIDSLKTIVEIESFKLVRYVDDLHIFIKCANKDLDFLNYKVYNLLCEKATKHHLEINSSKTKSFTPTSELSTKMNTDLYNFFVYNEDVDFEQYFSKNTLIEFLDKLNNMSVNADFSEYEKEVLYTLENPEIVSDGSYILNAIVYNKSTWSQDYDIKNKISLLVNSNYRKLRYSAKALITLVLNTRDGDIIKGLLNNLFTTFKNGTNDIIDEIILIEYLVQRKFNHKDLMTILKADDHGIKEYIKAYQTSDFIKSLEKNKVIFYTNQKEVYPLISKDKILNFIYFRAKYFESLDLVLESFAYYKNYFDRFVAHAMFCTGIDSGRKPNYKLYYTEGKLIDGLKQLNFLSSDEITKIINEAHKIRNSNPVSHSSAGLLQNEDFSRYRVKSSLNDLKIIIEQLSTLLQNKNRL
modifications: co-purified ssDNA; the paper shows covalent attachment, with priming at Tyr298 or Tyr303, on the His-tagged protein; 5-9 nt visible in the structure
notes: AbiA, plasmid-encoded abortive infection RT-like polymerase of Lactococcus lactis, full length, 628 amino acid residues; synthetic gene in pET28a-SUMO; The SUMO tag is not visible in the structure; also called full-length SUMO-tagged AbiA; AbiA with an uncleaved SUMO tag; source: E. coli BL21 STAR, purified (HisTrap HP, Superdex 200); not shown: His6, N-terminal, kept; SUMO, N-terminal, kept
As for B1, in data set [1], the “stoichiometry N” value turned out to be 2.

B2: AbiA Y80W/T269W (enzyme, L. lactis, UniProt Q48596 1-628, looked up)
chain: MITLQHQDWERAVNMIKNIPPSAKNKYFQTFPFFLLSETSWEELLSENFFYSYIKSGEFLTYQENLSFYDRTIQKSHGAWRQTRIVSPIIYIFLIAIASQVERIYVEKRTNDMSVYFSGSFEKEKNTAHYKQSYNTYMTELNACQEEFDYYFQTDFSTFFHLVDTDNLFNKIDRLDPKSALVYSSLIKMIGQGRMPIVDGNSGLSFLNTVVYLDDFDKEIIDSLKTIVEIESFKLVRYVDDLHIFIKCANKDLDFLNYKVYNLLCEKAWKHHLEINSSKTKSFTPTSELSTKMNTDLYNFFVYNEDVDFEQYFSKNTLIEFLDKLNNMSVNADFSEYEKEVLYTLENPEIVSDGSYILNAIVYNKSTWSQDYDIKNKISLLVNSNYRKLRYSAKALITLVLNTRDGDIIKGLLNNLFTTFKNGTNDIIDEIILIEYLVQRKFNHKDLMTILKADDHGIKEYIKAYQTSDFIKSLEKNKVIFYTNQKEVYPLISKDKILNFIYFRAKYFESLDLVLESFAYYKNYFDRFVAHAMFCTGIDSGRKPNYKLYYTEGKLIDGLKQLNFLSSDEITKIINEAHKIRNSNPVSHSSAGLLQNEDFSRYRVKSSLNDLKIIIEQLSTLLQNKNRL
notes: AbiA of Lactococcus lactis, 628 residues, with tryptophan substitutions in the dimer interface; The methods say point substitutions were introduced into the N-terminal His6-tag construct; Expression and purification of this variant are not described separately
In the case of B2, in data set [2], the “stoichiometry N” value was determined as 2.

B3: AbiA L162W/R601A (enzyme, L. lactis, UniProt Q48596 1-628, looked up)
chain: MITLQHQDWERAVNMIKNIPPSAKNKYFQTFPFFLLSETSWEELLSENFFYSYIKSGEFLTYQENLSFYDRTIQKSHGAYRQTRIVSPIIYIFLIAIASQVERIYVEKRTNDMSVYFSGSFEKEKNTAHYKQSYNTYMTELNACQEEFDYYFQTDFSTFFHWVDTDNLFNKIDRLDPKSALVYSSLIKMIGQGRMPIVDGNSGLSFLNTVVYLDDFDKEIIDSLKTIVEIESFKLVRYVDDLHIFIKCANKDLDFLNYKVYNLLCEKATKHHLEINSSKTKSFTPTSELSTKMNTDLYNFFVYNEDVDFEQYFSKNTLIEFLDKLNNMSVNADFSEYEKEVLYTLENPEIVSDGSYILNAIVYNKSTWSQDYDIKNKISLLVNSNYRKLRYSAKALITLVLNTRDGDIIKGLLNNLFTTFKNGTNDIIDEIILIEYLVQRKFNHKDLMTILKADDHGIKEYIKAYQTSDFIKSLEKNKVIFYTNQKEVYPLISKDKILNFIYFRAKYFESLDLVLESFAYYKNYFDRFVAHAMFCTGIDSGRKPNYKLYYTEGKLIDGLKQLNFLSSDEITKIINEAHKIRNSNPVSHSSAGLLQNEDFSAYRVKSSLNDLKIIIEQLSTLLQNKNRL
notes: AbiA of Lactococcus lactis, 628 residues, with substitutions in the dimer interface; The methods say point substitutions were introduced into the N-terminal His6-tag construct; Expression and purification of this variant are not described separately
As to B3, in data set [2], the “stoichiometry N” value stood at 2.

B4: full-length untagged AbiA (enzyme, L. lactis, UniProt Q48596 1-628, looked up)
chain: MITLQHQDWERAVNMIKNIPPSAKNKYFQTFPFFLLSETSWEELLSENFFYSYIKSGEFLTYQENLSFYDRTIQKSHGAYRQTRIVSPIIYIFLIAIASQVERIYVEKRTNDMSVYFSGSFEKEKNTAHYKQSYNTYMTELNACQEEFDYYFQTDFSTFFHLVDTDNLFNKIDRLDPKSALVYSSLIKMIGQGRMPIVDGNSGLSFLNTVVYLDDFDKEIIDSLKTIVEIESFKLVRYVDDLHIFIKCANKDLDFLNYKVYNLLCEKATKHHLEINSSKTKSFTPTSELSTKMNTDLYNFFVYNEDVDFEQYFSKNTLIEFLDKLNNMSVNADFSEYEKEVLYTLENPEIVSDGSYILNAIVYNKSTWSQDYDIKNKISLLVNSNYRKLRYSAKALITLVLNTRDGDIIKGLLNNLFTTFKNGTNDIIDEIILIEYLVQRKFNHKDLMTILKADDHGIKEYIKAYQTSDFIKSLEKNKVIFYTNQKEVYPLISKDKILNFIYFRAKYFESLDLVLESFAYYKNYFDRFVAHAMFCTGIDSGRKPNYKLYYTEGKLIDGLKQLNFLSSDEITKIINEAHKIRNSNPVSHSSAGLLQNEDFSRYRVKSSLNDLKIIIEQLSTLLQNKNRL
modifications: co-purified ssDNA covalently attached (priming at Tyr298 or Tyr303)
notes: AbiA, plasmid-encoded abortive infection RT-like polymerase of Lactococcus lactis, full length, 628 amino acid residues; The results call it 'untagged'; The only SUMO-free construct in the methods carries an N-terminal His6-tag, and the SUMO tag could not be cleaved, so this is probably His6-AbiA; also called AbiA without SUMO tag; AbiA without a tag; source: E. coli BL21 STAR, purified (HisTrap …)
Consider B4, for which the “stoichiometry N” value in data set [1] stood at 2.

B5: AbiA Y80W/T269W/L515W (enzyme, L. lactis, UniProt Q48596 1-628, looked up)
chain: MITLQHQDWERAVNMIKNIPPSAKNKYFQTFPFFLLSETSWEELLSENFFYSYIKSGEFLTYQENLSFYDRTIQKSHGAWRQTRIVSPIIYIFLIAIASQVERIYVEKRTNDMSVYFSGSFEKEKNTAHYKQSYNTYMTELNACQEEFDYYFQTDFSTFFHLVDTDNLFNKIDRLDPKSALVYSSLIKMIGQGRMPIVDGNSGLSFLNTVVYLDDFDKEIIDSLKTIVEIESFKLVRYVDDLHIFIKCANKDLDFLNYKVYNLLCEKAWKHHLEINSSKTKSFTPTSELSTKMNTDLYNFFVYNEDVDFEQYFSKNTLIEFLDKLNNMSVNADFSEYEKEVLYTLENPEIVSDGSYILNAIVYNKSTWSQDYDIKNKISLLVNSNYRKLRYSAKALITLVLNTRDGDIIKGLLNNLFTTFKNGTNDIIDEIILIEYLVQRKFNHKDLMTILKADDHGIKEYIKAYQTSDFIKSLEKNKVIFYTNQKEVYPLISKDKILNFIYFRAKYFESLDLVWESFAYYKNYFDRFVAHAMFCTGIDSGRKPNYKLYYTEGKLIDGLKQLNFLSSDEITKIINEAHKIRNSNPVSHSSAGLLQNEDFSRYRVKSSLNDLKIIIEQLSTLLQNKNRL
notes: as for B2
Take B5: the “stoichiometry N” value in data set [2] was determined as 2.

B6: AbiA L515W (enzyme, L. lactis, UniProt Q48596 1-628, looked up)
chain: MITLQHQDWERAVNMIKNIPPSAKNKYFQTFPFFLLSETSWEELLSENFFYSYIKSGEFLTYQENLSFYDRTIQKSHGAYRQTRIVSPIIYIFLIAIASQVERIYVEKRTNDMSVYFSGSFEKEKNTAHYKQSYNTYMTELNACQEEFDYYFQTDFSTFFHLVDTDNLFNKIDRLDPKSALVYSSLIKMIGQGRMPIVDGNSGLSFLNTVVYLDDFDKEIIDSLKTIVEIESFKLVRYVDDLHIFIKCANKDLDFLNYKVYNLLCEKATKHHLEINSSKTKSFTPTSELSTKMNTDLYNFFVYNEDVDFEQYFSKNTLIEFLDKLNNMSVNADFSEYEKEVLYTLENPEIVSDGSYILNAIVYNKSTWSQDYDIKNKISLLVNSNYRKLRYSAKALITLVLNTRDGDIIKGLLNNLFTTFKNGTNDIIDEIILIEYLVQRKFNHKDLMTILKADDHGIKEYIKAYQTSDFIKSLEKNKVIFYTNQKEVYPLISKDKILNFIYFRAKYFESLDLVWESFAYYKNYFDRFVAHAMFCTGIDSGRKPNYKLYYTEGKLIDGLKQLNFLSSDEITKIINEAHKIRNSNPVSHSSAGLLQNEDFSRYRVKSSLNDLKIIIEQLSTLLQNKNRL
notes: AbiA of Lactococcus lactis, 628 residues, with a tryptophan substitution in the dimer interface; The methods say point substitutions were introduced into the N-terminal His6-tag construct; Expression and purification of this variant are not described separately
B6: the “stoichiometry N” value in data set [2] came to 2.
